Results as given in IntAct's records for PubMed 12058072.

B1: Serine/threonine-protein kinase GIN4 (Saccharomyces cerevisiae), Q12263 (parent)
chain: MAINGNSIPAIKDNTIGPWKLGETLGLGSTGKVQLARNGSTGQEAAVKVISKAVFNTGNVSGTSIVGSTTPDALPYGIEREIIIMKLLNHPNVLRLYDVWETNTDLYLVLEYAEKGELFNLLVERGPLPEHEAIRFFRQIIIGVSYCHALGIVHRDLKPENLLLDHKYNIKIADFGMAALETEGKLLETSCGSPHYAAPEIVSGIPYQGFASDVWSCGVILFALLTGRLPFDEEDGNIRTLLLKVQKGEFEMPSDDEISREAQDLIRKILTVDPERRIKTRDILKHPLLQKYPSIRDSKSIRGLPREDTYLTPLSESNSSIDATILQNLVILWHGRDPEGIKEKLREPGANAEKTLYALLYRFKCDTQKELIKQQQVKKRQSISSVSVSPSKKVSTTPQRRRNRESLISVTSSRKKPISFNKFTASSASSSNLTTPGSSKRLSKNFSSKKKLSTIVNQSSPTPASRNKRASVINVEKNQKRASIFSTTKKNKRSSRSIKRMSLIPSMKRESVTTKLMSTYAKLAEDDDWEYIEKETKRTSSNFATLIDEIFEYEKYEQIRKEKEELERKVREAKAREELERRRRKQEEKERARKLLEKEDLKRKQEELKKQIEIDISDLEQELSKHKEEKLDGNIRSISAPMENEEKNINHLEVDIDNILRRRNFSLQTRPVSRLDPGIMFSSPTEEVSPVEPKRTENERLTTEKKILETIRRSKFLGSSFNIDKELKLSKMEYPSIIAPQRLSEERVVSDSNDGYESLILPKDGNGVSQLKDSTATTAPVSDGRLRKISEIRVPQFTRKSRHFSESNKRLSVLSMYSTKESFTNLVDILKNGNLDVNNQQSQRIPTPRSADDSEFLFETVNEEAEYTGNSSNDERLYDVGDSTIKDKSALKLNFADRFNGSNEAKQTDNLHLPILPPLNGDNELRKQNSQEGDQAHPKIKSMIPESGSSSHTEKEEENEEKEEKKPEQHKQEEDQEKREKVVDDMEPPLNKSVQKIREKNAGSQAKDHSKDHLKEHKQDKNTAIGNGSFFRKFSKSSDKTMELYAKISAKQLFNGLEKLLRGWTQYGLKNIKSHPNNLTLTGKLSSDNIFSLRSTLFEVNIYPRGKMSVVQFKKVSGSFKAVKKLVNEVENVLNKEGVLQK
partner: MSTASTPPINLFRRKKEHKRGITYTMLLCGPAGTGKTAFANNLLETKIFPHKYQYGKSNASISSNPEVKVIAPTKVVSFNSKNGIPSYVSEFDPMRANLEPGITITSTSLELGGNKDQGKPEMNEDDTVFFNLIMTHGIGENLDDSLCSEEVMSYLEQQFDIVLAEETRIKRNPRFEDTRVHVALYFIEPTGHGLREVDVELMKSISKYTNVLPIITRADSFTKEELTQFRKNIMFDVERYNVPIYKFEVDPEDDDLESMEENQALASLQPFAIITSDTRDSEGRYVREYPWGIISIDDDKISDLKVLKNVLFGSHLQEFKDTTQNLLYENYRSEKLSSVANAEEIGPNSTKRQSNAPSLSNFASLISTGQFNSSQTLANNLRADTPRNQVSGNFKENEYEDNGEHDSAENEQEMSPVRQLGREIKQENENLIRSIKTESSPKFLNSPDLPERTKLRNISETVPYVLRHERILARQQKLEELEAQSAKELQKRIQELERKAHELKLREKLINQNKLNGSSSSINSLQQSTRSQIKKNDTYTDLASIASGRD

Variants of: B1
Settings: with shs1_yeast SHS1, Q07657

Variant | effect of a mutation on the interaction
K48A | disrupting interaction
